Experimental data from the supplement of paper PMC10126150.
± gives the standard deviation of the averaged measurements.

test system: ATP; experiment: switch fluorescence ratio, 500 uM ATP over buffer (Cy3 cluster intensity, sum of 5 cycles each) (fold (ratio)); higher = stronger signal-on switching upon ATP binding; sequences stand for … in TCGTCGGCAGCGTCAGATGTGTATAAGAGACAGTTTTTTTTTTTTTTTTTTTTTTTTT…TC; conditions: aptamer strand: ATP DNA aptamer (quencher-CACCTGGGGGAGTATTGCGGAGGAAGG + anchor), 100 nM annealed; ATP concentration: 500 uM
In short: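 Switching-strand clusters labelled with Cy3 on a modified Illumina MiSeq flow-cell were annealed to 100 nM quencher-labelled ATP aptamer, imaged in selection buffer, and re-imaged after 15 min with 500 uM ATP at 22 °C. This was done over five cycles with NaOH stripping and re-annealing in between. The fluorescence ratio is summed target-cycle over summed buffer-cycle Cy3 intensity per cluster, averaged per switch-domain sequence, excluding clusters outside 100-1000 RFU.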
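Also: ATP exposure 15 min at 22 °C before imaging.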

In order of rising switch fluorescence ratio:
1. AGTTTGCGGC  0.94 ± 0.039
2. AGTTGGAGGC  0.9476 ± 0.0088
3. AGTGTTGCGG  0.952 ± 0.021
4. AGTTTGTTCG  0.953 ± 0.022
5. AGTTTTTGTC  0.953 ± 0.048
6. AGTGTCTTTG  0.954 ± 0.011
7. AGTGTTTCAG  0.956 ± 0.018
8. AGTTGTAAGG  0.962 ± 0.014
9. AGTTGTGGGC  0.968 ± 0.018
10. AGTGTTTAAA  0.969 ± 0.025
11. AGTTGTTAGT  0.969 ± 0.021
12. AGTGTTGTCA  0.97 ± 0.043
13. AGTTTCTAGT  0.97 ± 0.043
14. AGTTGAGATG  0.971 ± 0.033
15. ATAAATGGGC  0.972 ± 0.014
16. AGTGTTCGCT  0.9732 ± 0.0052
17. AGTGTTGTTG  0.9727 ± 0.0095
18. AGTTAGGAAG  0.973 ± 0.011
19. AGTTGAAGGG  0.973 ± 0.018
20. AGTTGGTTAT  0.974 ± 0.022
21. AGTGTAATGT  0.975 ± 0.059
22. AGTGTTGATG  0.975 ± 0.051
23. AGTTAGAGTG  0.976 ± 0.016
24. ATAAAATAAA  0.976 ± 0.031
25. ATAAAGACTT  0.9755 ± 0.0058
26. AGTGTTGGG  0.9768 ± 0.0046
27. AGTGTGGTGC  0.9778 ± 0.0073
28. AGTTGATGGG  0.978 ± 0.049
29. AGTTGGAATT  0.979 ± 0.012
30. AGTTTATGCG  0.979 ± 0.021
31. ATAAAACATG  0.9785 ± 0.0055
32. AGTTCGGTGC  0.9799 ± 0.0012
33. AGTTTAGGGG  0.9796 ± 0.0016
34. AGTTTTGCTC  0.981 ± 0.012
35. AGTGTTCTCG  0.983 ± 0.017
36. AGTTTGGGTC  0.984 ± 0.057
37. AGTTAATGCT  0.9856 ± 0.0026
38. AGTTCGTTA  0.9861 ± 0.0056
39. AGTTTCGCTC  0.987 ± 0.063
40. AGTGGTTATT  0.989 ± 0.032
41. AGTTTGATGG  0.99 ± 0.087
42. AGTGTCGTTT  0.991 ± 0.02
43. AGTTATTTTT  0.991 ± 0.011
44. AGTGTTATTT  0.993 ± 0.011
45. AGTGTTTTAA  0.994 ± 0.033
46. AGTTGAATTG  0.994 ± 0.022
47. ATAAAGGGTT  0.9936 ± 0.009
48. ATAAATGGGT  0.9945 ± 0.0025
49. AGTTAGGGGC  0.995 ± 0.053
50. AGTTGCTGCT  0.995 ± 0.02
51. AGTTTAGTGA  0.996 ± 0.044
52. AGTTTGGGTA  0.9959 ± 0.008
53. AGTTGCGTCG  0.997 ± 0.031
54. AGTTATTGAG  0.9991 ± 0.0043
55. AGTTCGGCGT  0.999 ± 0.029
56. AGTGTCGTGC  1 ± 0.025
57. AGTTGAGGAA  1 ± 0.026
58. AGTTGGGGTA  1 ± 0.013
59. AGTTGGGTCG  1.004 ± 0.0056
60. AGTTGTTTGG  1 ± 0.025
61. AGTTTATGCA  1 ± 0.017
62. AGTTTCGGCG  1 ± 0.02
63. AGTTTGGGAA  1 ± 0.018
64. AGTTTTTATA  1.002 ± 0.0012
65. ATAAAAACAT  1 ± 0.027
66. ATAAAGCTTA  1 ± 0.03
67. AGTGTATCCC  1.01 ± 0.034
68. AGTGTGGGGG  1.01 ± 0.029
69. AGTGTTACG  1.01 ± 0.04
70. AGTGTTGTGC  1.01 ± 0.033
71. AGTGTTTGGC  1.01 ± 0.022
72. AGTTATCGAA  1.009 ± 0.0036
73. AGTTATTGCC  1.01 ± 0.029
74. AGTTGCCCGG  1.006 ± 0.0068
75. AGTTGCTTGG  1.01 ± 0.041
76. AGTTGGTTAC  1.01 ± 0.023
77. AGTTGTACAA  1.012 ± 0.01
78. AGTTGTGTAT  1.01 ± 0.051
79. AGTTTATAGA  1.01 ± 0.023
80. AGTTTATTC  1.01 ± 0.061
81. AGTTTCCTGC  1.01 ± 0.015
82. AGTTTTACAG  1.01 ± 0.02
83. ATAAAAAAGG  1.01 ± 0.017
84. AGTGTTGGCC  1.023 ± 0.0089
85. AGTTAGACTT  1.02 ± 0.064
86. AGTTGGACAG  1.02 ± 0.012
87. AGTTGGATC  1.02 ± 0.015
88. AGTTGGCGGC  1.02 ± 0.039
89. AGTTGGTGG  1.02 ± 0.024
90. AGTTTTTTTC  1.02 ± 0.023
91. ATAAACCGGG  1.02 ± 0.043
92. ATAAAGCAGT  1.02 ± 0.048
93. AGTTAAAGTG  1.03 ± 0.057
94. AGTTCCGTTG  1.028 ± 0.0097
95. AGTTGGCTTG  1.03 ± 0.03
96. AGTGTGGGCG  1.04 ± 0.02
97. AGTGTTTGCC  1.036 ± 0.0035
98. AGTTGGGGTT  1.035 ± 0.0033
99. AGTTTGGTGC  1.05 ± 0.027
100. AGTTATTAAT  1.06 ± 0.054
